Values quoted from earlier work in patent publication US20030232389A1, “Urokinase peptide structure mimetics” (priority 2000, published 2003).
Positions of bridges follow the written chain, without caps; N, C: chain ends. Non-standard residues stand in square brackets, D forms with d. No end group written: not given here.

Molecular target: uPAR (uPA receptor) (Homo sapiens, UniProt Q03405)
Settings: cyclic disulfide peptide mimicking loop B of the uPA growth factor domain; value from German patent application 199 33 701.2

Sequence of uPAR (uPA receptor) (Q03405 23-305): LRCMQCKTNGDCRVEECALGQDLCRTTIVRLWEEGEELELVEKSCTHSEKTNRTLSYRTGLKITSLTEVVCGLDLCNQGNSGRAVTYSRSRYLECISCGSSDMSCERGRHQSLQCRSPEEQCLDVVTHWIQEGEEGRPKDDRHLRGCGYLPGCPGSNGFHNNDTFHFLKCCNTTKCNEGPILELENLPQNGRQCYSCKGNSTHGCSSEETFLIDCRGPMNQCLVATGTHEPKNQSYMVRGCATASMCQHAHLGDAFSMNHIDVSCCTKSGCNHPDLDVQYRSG

For “cyclo[1,9] D-Cys-Asn-Lys-Tyr-Phe-Ser-Asn-Ile-Cys-Trp ([dC]NKYFSNICW; disulfide 1-9) [cyclo[21,29][D-Cys21Cys29]-uPA21-30]”, the IC50 is listed as 78 nM.
